Measurements taken from patent US5756665A, “Peptide isolated from micrococcus varians and use thereof” (priority 1995, dated 1998).

Columns and labels:
Type in all cases: cell-based
[1] = test system: strain Lactococcus lactis which produces lacticin 481; assay: Inhibition spectrum test on the lacticin 481 producer
[2] = test system: Lactobacillus helveticus (N 2); assay: Resistance to heat and to pH, agar well test; details: pH 4 or 7 combined with elevated temperature
[3] = test system: Lactobacillus helveticus (N 2); assay: Resistance to pH, agar well test; details: pH 2 to 10
[4] = test system: Lactobacillus helveticus (N 2); assay: Resistance to heat, agar well test; details: 60 min incubation at 100 °C
[5] = test system: Lactobacillus helveticus (N 2); assay: Inactivation by enzymes, agar well test
[6] = test system: Gram-negative bacteria; assay: Inhibition spectrum, summary for Gram-negative bacteria; details: summary of Table V
Text: The inhibition spectrum of the supernatant is thus determined.

| Substance | growth of the lacticin 481-producing strain in the presence of the bacteriocin [1] | bactericidal activity after heat and pH [2] | pH dependence of bactericidal activity [3] | bactericidal activity after heat [4] | influence of catalase on bactericidal activity ([5]; Tables I and II, two indicator strains) | effect of proteolytic enzymes on bactericidal activity ([5]; all proteolytic enzymes of Tables I and II) | inhibitory effect on the growth of Gram-negative bacteria [6] |
| --- | --- | --- | --- | --- | --- | --- | --- |
| lacticin 481 | immune |  |  |  |  |  |  |
| variacin: bacteriocin from Micrococcus varians strains CNCM I-1586 and CNCM I-1587, amino acid sequence SEQ ID NO:1, 2659 daltons (GSGVIPTISHECHMNSFQFVFTCCS) |  | not compromised | not pH-dependent | not compromised | not found to exert any influence | suppress the bactericidal activity | does not exert any inhibitory effect |
